The target of the assay is T1, MBP-Cdc12(1–765-6A) (S. pombe, UniProt Q10059 1-765, T20A | T22A | S64A | T95A | T151A | S463A).
T1 sequence (looked up): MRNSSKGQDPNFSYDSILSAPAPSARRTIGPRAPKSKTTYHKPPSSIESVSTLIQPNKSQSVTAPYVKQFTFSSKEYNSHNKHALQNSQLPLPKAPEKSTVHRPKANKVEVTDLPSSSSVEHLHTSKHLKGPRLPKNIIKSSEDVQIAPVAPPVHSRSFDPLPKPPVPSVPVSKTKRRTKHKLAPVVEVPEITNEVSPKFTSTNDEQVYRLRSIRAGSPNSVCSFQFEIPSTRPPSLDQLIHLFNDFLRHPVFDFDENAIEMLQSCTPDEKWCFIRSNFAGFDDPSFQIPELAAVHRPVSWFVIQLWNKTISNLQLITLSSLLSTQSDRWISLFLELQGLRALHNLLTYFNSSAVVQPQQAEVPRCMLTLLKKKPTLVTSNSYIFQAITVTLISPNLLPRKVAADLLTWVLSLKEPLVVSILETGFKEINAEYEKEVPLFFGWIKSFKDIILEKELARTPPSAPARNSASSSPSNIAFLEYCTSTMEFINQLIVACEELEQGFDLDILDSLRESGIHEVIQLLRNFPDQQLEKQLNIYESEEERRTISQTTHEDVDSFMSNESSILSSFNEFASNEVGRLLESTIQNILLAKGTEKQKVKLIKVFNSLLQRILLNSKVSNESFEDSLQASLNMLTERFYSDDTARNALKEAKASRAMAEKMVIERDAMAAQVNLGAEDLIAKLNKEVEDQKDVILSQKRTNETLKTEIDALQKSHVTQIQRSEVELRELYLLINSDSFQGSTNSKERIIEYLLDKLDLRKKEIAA
Briefly: pull-down.

B1: Cdc15 F-BAR(19–312) (domain or fragment, S. pombe, UniProt Q09822 19-312, looked up)
chain: SVKFRDNFWGSEDAGMDALMSRTKSSLSVLESIDEFYAKRASIEREYASKLQELAASSADIPEVGSTLNNILSMRTETGSMAKAHEEVSQQINTELRNKIREYIDQTEQQKVVAANAIEELYQKKTALEIDLSEKKDAYEYSCNKLNSYMRQTKKMTGRELDKYNLKIRQAALAVKKMDAEYRETNELLLTVTREWIDRWTEVCDAFQHIEEYRLEFLKTNMWAYANIISTACVKDDESCEKIRLTLENTNIDEDITQMIQNEGTGTTIPPLPEFNDYFKENGLNYDIDQLISK
As for B1, the binding result is “binds”.

Source of the values: publication PMC6003227 (Molecular Biology of the Cell, 2018).
